Entries after “also recorded” stand apart in the source; their conditions may differ. Read-outs that look alike come from different tables or passages of the source.
How the values were obtained:
YiaC [1] = experiment: Kinetic parameters of YiaC, MALDI-TOF MS; format: biochemical, E. coli; conditions: for kcat: peptide from PncB, MALDI-TOF MS
Description: (§1) This method was described previously. […] Meanwhile, YiaC was incubated with unmodified peptide ([…], from PncB) in the YiaC reaction buffer. The concentrations of the peptides were 5, 10, 16, 32, 60, and 285 uM, and reaction time were 1, 5, 15, and 30 min. […] 0.1 μl samples mixed with 2,5-dihydroxybenzoic acid (DHB) were analyzed by MS. An acceleration voltage of 20 kV was used. MS data were analyzed using FlexAnalysis software for spectral processing and peak detection. The enzyme kinetics were analyzed by Prism GraphPad 8.0 software.

YiaC [2] = experiment: YiaC lactylation/acetylation of synthetic peptide, LC-MS; format: biochemical, E. coli; conditions: 50 μM TICHDKAFVR, 5 μM YiaC, 2 h
whole-cell lysates = experiment: Immunoblotting of lysine acylation in whole-cell lysates of overexpressing or deficient strains; format: cell-based, E. coli; conditions: immunoblot; for Kla level: overexpression in E. coli BL21 (λDE3) vs empty pET28a, LB 37 °C
Description: All the anti-acyllysine antibodies were purchased from PTM Biolabs Inc. All the synthetic peptides were generated by SciLight Biotechnology, LLC. Antibodies (all diluted 1:1000) and other reagents are listed in Supplementary Data 7.
This method was performed as described previously. In detail, plasmids were constructed to express proteins in E. coli. We used pEASY®-Basic Seamless Cloning and Assembly Kit (TRANS) to construct the plasmids of pET28a-cisY, pET28a-pncB, pET28a-gpmA, pET28a-mdh, pET28a-pykF, and pBR322-pykF-His tag. For mutation, we used the Fast Mutagenesis System (TRANS) to construct the vectors containing point mutated genes. All primers used for PCR are listed in Supplementary Data 7. The constructed vectors of pET28a were transformed into E. coli BL21 (λDE3) for overexpressing strains. The constructed vectors of pBR322 were transformed into E. coli MG1655 and cultured in LB medium containing ampicillin (Amp, 50 μg ml^–1), at 37 °C in shaken flasks at 220 rpm. overnight.
Next, cells were induced with 0.05 mM IPTG at 16 °C overnight followed by harvesting of whole-cell lysates for immunoblotting or protein purification. The proteins were harvested from cultured cells by lysis buffer (20 mM Tris-HCl, pH 8.0, 10 mM MgCl2, 1 mg ml^–1 lysozyme, 50 U ml^–1 nuclease). Then the proteins were mixed with HisPur Ni-NTA Resin and washed by wash buffer (20 mM Na3PO4, 300 mM NaCl, 25 mM imidazole, pH 7.4), the overexpressed proteins were eluted with elution buffer (20 mM Na3PO4, 300 mM NaCl, 250 mM imidazole, PH 7.4). The elution was collected and concentrated using an Amicon Ultra-0.5 Centrifugal Filter Device in storage buffer (100 mM HEPES, 10 mM MgCl2, 7.7 mM KCl, pH 7.0).

GltA, PncB = experiment: Lactylation reaction of recombinant proteins by YiaC, immunoblotting; format: biochemical, E. coli; conditions: 15 μM YiaC, 20 μM substrate, lactyl-CoA 1 mM, 25 °C, 10 h
CobB [3] = molecular target: T1, CobB (Escherichia coli, UniProt P75960); conditions: for kcat: 37 °C, MALDI-TOF MS, mean ± SEM; for kcat / kcat/Km: n = 3
T1 sequence (P75960 1-279): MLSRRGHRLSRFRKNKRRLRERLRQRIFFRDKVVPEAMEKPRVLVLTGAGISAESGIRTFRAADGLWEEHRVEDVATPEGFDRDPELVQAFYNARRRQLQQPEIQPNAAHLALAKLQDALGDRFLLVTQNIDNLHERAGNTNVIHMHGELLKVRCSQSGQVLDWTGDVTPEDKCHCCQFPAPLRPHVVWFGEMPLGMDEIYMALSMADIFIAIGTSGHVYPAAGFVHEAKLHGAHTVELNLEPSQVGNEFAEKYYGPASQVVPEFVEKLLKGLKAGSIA
Description: as §1

PykF = conditions: in vitro; result in words
CobB [4] = molecular target: T1, CobB; conditions: 50 μM peptide, 1 μM CobB, pH 8.5, 37 °C, 2 h; with 1 mM NAD^+ unless stated
PykF, GpmA, Mdh = conditions: 15 μM CobB, 20 μM substrate, 25 °C, 10 h
Description: The purified recombinant YiaC (15 μM) and candidate substrate proteins (GltA, PncB, 20 μM) were incubated in YiaC reaction buffer at 25 °C for 10 h. […] The reaction products were analyzed by Western blotting with anti-lactylation.

PrpE = experiment: In vitro assay for PrpE activity; format: biochemical, E. coli; conditions: result in words
Description: This method was performed as described previously. In detail, the purified Acs or PrpE with a final concentration of 0.3 μM were added in the reaction buffer [50 mM HEPES, 10 mM MgCl2, 2.5 mM ATP, 0.5 mM HSCoA, 3 mM phosphoenolpyruvate, 0.1 mM NADH, 1 U pyruvate kinase, 1.5 U lactate dehydrogenase, 5 U myokinase, 10 mM DTT, and 0.2 mM organic acid substrate (acetate, lactate and propionate), PH 7.5] at 25 °C for 30 min. […] Each reaction was performed three biological repetitions.
Samples dissolved in water were analyzed by an Orbitrap Exploris 480 (Thermo Scientific) mass spectrometer in positive ESI mode using the settings described previously[65],[66]. […] An Orbitrap Exploris 480 (Thermo Fisher Scientific) was employed for MS analysis. Spray voltage was set to 3.5 kV, funnel RF level at 40, and ion transfer tube temperature at 320 °C. Data were collected by Xcalibur (v.4.0.27.19). The orbitrap mass analyzer was used as the MS1 detector with 120,000 resolution. The normalized AGC target and maximum injection time were set at 70% /standard for MS1. The MS2 detector was used 15,000 resolution. Targeted mass setting is lactyl-CoA: 840.1436, acetyl-CoA: 810.1330 and propionate CoA: 824.1487. […] The relative intensity of acyl-CoA was analyzed by Xcalibur (v.4.0.27.19).

[5] = overexpression in E. coli BL21 (λDE3) vs pET28a
[6] = Deacetylation, Michaelis-Menten best fit, Supplementary Data 2
[7] = deacetylation, AETAEK(ac)YGDEQVK
[8] = delactylation, AETAEK(la)YGDEQVK

B1: YiaC: GNAT family protein; lysine lactylase (protein, UniProt P37664 1-146, looked up)
Peptidyl-lysine …: MIREAQRSELPAILELWLESTTWGHPFIKANYWRDCIPLVRDAYLANAQNWVWEEDGKLLGFVSIMEGRFLAAMFVAPKAVRRGIGKALMQYVQQRHPHLMLEVYQKNQPAINFYQAQGFHIVDCAWQDETQLPTWIMSWPVVQTL
Vmax (YiaC [1]; Acetylation, Michaelis-Menten best fit, Supplementary Data 2): 0.005773 | Km (YiaC [1]; Acetylation, Michaelis-Menten best fit, Supplementary Data 2, read-out: Km): 28.7 µM | Vmax (YiaC [1]; Lactylation, Michaelis-Menten best fit, Supplementary Data 2): 0.01667 | Km (YiaC [1]; Lactylation, Michaelis-Menten best fit, Supplementary Data 2, read-out: Km): 26.6 µM | kcat/Km (YiaC [1]; acetylation, n = 3): 8000 M⁻¹ s⁻¹ | Km (YiaC [1]; acetylation, peptide from PncB 5-285 μM, mean ± SEM, n = 3, read-out: Km for peptide): 28.7 ± 1.2 µM | kcat (YiaC [1]; acetylation, mean ± SEM, n = 3): 0.23 ± 0.04 s⁻¹ | kcat/Km (YiaC [1]; lactylation, n = 3): 36000 M⁻¹ s⁻¹ | Km (YiaC [1]; lactylation, peptide from PncB 5-285 μM, mean ± SEM, n = 3, read-out: Km for peptide): 26.6 ± 1.1 µM | kcat (YiaC [1]; lactylation, mean ± SEM, n = 3): 0.97 ± 0.03 s⁻¹ | lactylation of peptide by YiaC (YiaC [2]; 0.1 mM lactyl-CoA, pH 7, 37 °C): can catalyze lactylation in vitro | lactylation compared with acetylation by YiaC (YiaC [2]; 37 °C): likely more efficient for lactylation | Kla level (whole-cell lysates): extensive and obvious increase in Kla levels | Kac level (whole-cell lysates; [5]): could upregulate Kac | succinylation level (whole-cell lysates; [5]): did not cause a change in succinylation | lactylation of candidate proteins (GltA, PncB): can effectively lactylate citrate synthase (GltA) and nicotinate phosphoribosyltransferase (PncB)

B2: CobB: NAD-dependent deacylase; lysine delactylase (protein)
chain: MLSRRGHRLSRFRKNKRRLRERLRQRIFFRDKVVPEAMEKPRVLVLTGAGISAESGIRTFRAADGLWEEHRVEDVATPEGFDRDPELVQAFYNARRRQLQQPEIQPNAAHLALAKLQDALGDRFLLVTQNIDNLHERAGNTNVIHMHGELLKVRCSQSGQVLDWTGDVTPEDKCHCCQFPAPLRPHVVWFGEMPLGMDEIYMALSMADIFIAIGTSGHVYPAAGFVHEAKLHGAHTVELNLEPSQVGNEFAEKYYGPASQVVPEFVEKLLKGLKAGSIA
modifications: left off: His tag (from the vector pET28a and the Ni-NTA purification), end not stated, state not stated
notes: NAD-dependent deacylase; lysine delactylase
Km (CobB [3]; [6]): 25.4 µM | Vmax (CobB [3]; [6]): 0.01822 | Vmax (CobB [3]; Delactylation, Michaelis-Menten best fit, Supplementary Data 2): 0.02447 | kcat (CobB [3]; [7]): 0.97 ± 0.02 s⁻¹ | kcat/Km (CobB [3]; [7]): 52000 M⁻¹ s⁻¹ | kcat (CobB [3]; [8]): 0.99 ± 0.04 s⁻¹ | kcat/Km (CobB [3]; [8]): 39000 M⁻¹ s⁻¹ | Kla level (whole-cell lysates): significant decrease in Kla levels | PykF activity after CobB erasing K382la (PykF): enhanced PykF activity in vitro | delactylation of peptide by CobB (CobB [4]): efficiently catalyzed the hydrolysis of the lactyl peptide in the presence of NAD^+; also recorded: the delactylated peptide was not detected in the reaction without NAD^+ | delactylation of candidate proteins (PykF, GpmA, Mdh): can clearly delactylate pyruvate kinase I (PykF), 2,3-bisphosphoglycerate-dependent phosphoglycerate mutase (GpmA) and malate dehydrogenase (Mdh) in vitro

B3: PrpE: propionate CoA synthetase (protein, UniProt P77495 1-628, looked up)
Propionate--CoA ligase: MSFSEFYQRSINEPEQFWAEQARRIDWQTPFTQTLDHSNPPFARWFCEGRTNLCHNAIDRWLEKQPEALALIAVSSETEEERTFTFRQLHDEVNAVASMLRSLGVQRGDRVLVYMPMIAEAHITLLACARIGAIHSVVFGGFASHSVAARIDDAKPVLIVSADAGARGGKIIPYKKLLDDAISQAQHQPRHVLLVDRGLAKMARVSGRDVDFASLRHQHIGARVPVAWLESNETSCILYTSGTTGKPKGVQRDVGGYAVALATSMDTIFGGKAGSVFFCASDIGWVVGHSYIVYAPLLAGMATIVYEGLPTWPDCGVWWTIVEKYQVSRMFSAPTAIRVLKKFPTAEIRKHDLSSLEVLYLAGEPLDEPTASWVSNTLDVPVIDNYWQTESGWPIMAIARGLDDRPTRLGSPGVPMYGYNVQLLNEVTGEPCGVNEKGMLVVEGPLPPGCIQTIWGDDGRFVKTYWSLFSRPVYATFDWGIRDADGYHFILGRTDDVINVAGHRLGTREIEESISSHPGVAEVAVVGVKDALKGQVAVAFVIPKESDSLEDRDVAHSQEKAIMALVDSQIGNFGRPAHVWFVSQLPKTRSGKMLRRTIQAICEGRDPGDLTTIDDPASLDQIRQAMEE
formation of lactyl-CoA from lactate (PrpE): neither Acs nor PrpE could catalyze the formation of lactyl-CoA from lactate

Source: article PMC9636275 (Nature Communications, 2022)
